In publication PMC2742380:
Where “and” joins values, the source holds several entries; their conditions need not be identical. Equal entries are not always repeated.

Key:
[1] = molecular target: His6-PA: WT PA with a carboxy-terminal six histidine tag, 63-kDa form (Bacillus anthracis); assay: negative-stain electron microscopy
[2] = molecular target: Protective antigen (PA), wild type, 63-kDa portion of trypsin-nicked PA (Bacillus anthracis); assay: native MS
[3] = molecular target: Protective antigen (PA), wild type, 63-kDa portion of trypsin-nicked PA (Bacillus anthracis); assay: negative-stain electron microscopy

Chain of Protective antigen (PA), wild type, 63-kDa portion of trypsin-nicked PA (Bacillus anthracis) (P13423 197-764 limits assumed): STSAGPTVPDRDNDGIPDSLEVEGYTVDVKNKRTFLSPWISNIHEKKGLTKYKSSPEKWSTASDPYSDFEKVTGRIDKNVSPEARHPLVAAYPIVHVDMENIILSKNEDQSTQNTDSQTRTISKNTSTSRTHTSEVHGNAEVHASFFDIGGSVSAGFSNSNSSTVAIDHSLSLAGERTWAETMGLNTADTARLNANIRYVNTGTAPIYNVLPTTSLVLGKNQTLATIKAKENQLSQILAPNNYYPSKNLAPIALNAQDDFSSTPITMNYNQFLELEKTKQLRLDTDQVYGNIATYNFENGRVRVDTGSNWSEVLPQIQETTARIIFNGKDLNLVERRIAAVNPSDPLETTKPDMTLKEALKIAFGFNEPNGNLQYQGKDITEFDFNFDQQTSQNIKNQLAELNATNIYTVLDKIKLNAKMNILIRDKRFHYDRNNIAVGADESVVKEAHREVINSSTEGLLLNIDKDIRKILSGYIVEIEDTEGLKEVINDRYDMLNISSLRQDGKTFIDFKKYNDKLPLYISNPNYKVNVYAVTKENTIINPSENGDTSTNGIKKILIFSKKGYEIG

His6-PA: WT PA with a carboxy-terminal six histidine tag, 63-kDa form (domain or fragment)
percent of oligomers that are heptamers [1]: 74% | percent of oligomers that are octamers [1]: 26%

LFN, amino-terminal domain of lethal factor (LF residues 1-263) (domain or fragment)
stoichiometry N (LFN per PA heptamer) [2]: 2 | stoichiometry N (LFN per PA tetramer) [2]: 2

Protective antigen (PA), wild type, 63-kDa portion of trypsin-nicked PA (domain or fragment)
stoichiometry N [3]: 7 and 8
